From paper PMC5424160 (2017) come the findings set out here.

The assay concerns the target GST-CDK9 (Homo sapiens (Human), UniProt P50750). Kind of assay: GST pull-down.

GST-CDK9, sequence (P50750 whole entry): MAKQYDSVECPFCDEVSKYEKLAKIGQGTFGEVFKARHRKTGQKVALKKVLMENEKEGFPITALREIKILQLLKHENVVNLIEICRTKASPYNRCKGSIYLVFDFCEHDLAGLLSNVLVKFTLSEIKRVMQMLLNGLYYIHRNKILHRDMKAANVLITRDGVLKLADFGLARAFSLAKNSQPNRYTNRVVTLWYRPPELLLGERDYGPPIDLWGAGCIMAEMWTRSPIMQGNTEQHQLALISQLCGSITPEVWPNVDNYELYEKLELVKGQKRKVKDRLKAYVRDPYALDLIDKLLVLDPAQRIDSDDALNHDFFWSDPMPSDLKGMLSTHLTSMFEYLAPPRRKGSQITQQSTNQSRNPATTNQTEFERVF

B1: His-Menin (protein)
chain: MGLKAAQKTLFPLRSIDDVVRLFAAELGREEPDLVLLSLVLGFVEHFLAVNRVIPTNVPELTFQPSPAPDPPGGLTYFPVADLSIIAALYARFTAQIRGAVDLSLYPREGGVSSRELVKKVSDVIWNSLSRSYFKDRAHIQSLFSFITGTKLDSSGVAFAVVGACQALGLRDVHLALSEDHAWVVFGPNGEQTAEVTWHGKGNEDRRGQTVNAGVAERSWLYLKGSYMRCDRKMEVAFMVCAINPSIDLHTDSLELLQLQQKLLWLLYDLGHLERYPMALGNLADLEELEPTPGRPDPLTLYHKGIASAKTYYRDEHIYPYMYLAGYHCRNRNVREALQAWADTATVIQDYNYCREDEEIYKEFFEVANDVIPNLLKEAASLLEAGEERPGEQSQGTQSQGSALQDPECFAHLLRFYDGICKWEEGSPTPVLHVGWATFLVQSLGRFEGQVRQKVRIVSREAEAAEAEEPWGEEAREGRRRGPRRESKPEEPPPPKKPALDKGLGTGQGAVSGPPRKPPGTVAGTARGPEGGSTAQVPAPTASPPPEGPVLTFQSEKMKGMKELLVATKINSSAIKLQLTAQSQVQMKKQKVSTPSDYTLSFLKRQRKGL
Turning to B1, the binding result is “no binding”.
